Results taken from article PMC3912326.
Like-named read-outs stand apart in the source and are kept apart here.

Legend:
Test in all cases: fluorescence anisotropy
[1] = target: T1, mouse transferrin receptor (mTfR) (Mus musculus, UniProt Q62351 89-763)
[2] = target: human transferrin receptor (hTfR) (Homo sapiens, UniProt P02786 89-760)
transferrin (Tf) = transferrin (Tf) (UniProt P02787 20-698)
[3] = target: T1, mouse transferrin receptor (mTfR); remark: listed apart in the source
[4] = target: T1, mouse transferrin receptor (mTfR); remark: listed apart in the source

T1 sequence (Q62351 89-763): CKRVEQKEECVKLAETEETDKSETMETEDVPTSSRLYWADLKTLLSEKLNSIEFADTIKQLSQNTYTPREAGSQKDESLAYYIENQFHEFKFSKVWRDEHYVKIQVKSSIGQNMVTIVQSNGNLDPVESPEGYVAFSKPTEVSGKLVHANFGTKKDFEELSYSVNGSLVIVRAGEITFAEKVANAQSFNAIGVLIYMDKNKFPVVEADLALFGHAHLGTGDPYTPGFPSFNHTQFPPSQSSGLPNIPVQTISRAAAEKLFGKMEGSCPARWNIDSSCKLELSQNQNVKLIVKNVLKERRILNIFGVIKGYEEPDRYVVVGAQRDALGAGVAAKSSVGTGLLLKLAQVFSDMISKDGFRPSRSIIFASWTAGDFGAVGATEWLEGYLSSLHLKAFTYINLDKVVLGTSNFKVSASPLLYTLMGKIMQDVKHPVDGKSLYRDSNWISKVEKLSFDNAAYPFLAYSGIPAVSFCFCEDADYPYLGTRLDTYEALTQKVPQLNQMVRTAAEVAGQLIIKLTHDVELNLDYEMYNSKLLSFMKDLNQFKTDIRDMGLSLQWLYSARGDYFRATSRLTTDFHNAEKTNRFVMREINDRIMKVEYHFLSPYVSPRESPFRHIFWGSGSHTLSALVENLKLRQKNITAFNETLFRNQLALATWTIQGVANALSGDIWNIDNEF
Chain of transferrin (Tf) (P02787 20-698): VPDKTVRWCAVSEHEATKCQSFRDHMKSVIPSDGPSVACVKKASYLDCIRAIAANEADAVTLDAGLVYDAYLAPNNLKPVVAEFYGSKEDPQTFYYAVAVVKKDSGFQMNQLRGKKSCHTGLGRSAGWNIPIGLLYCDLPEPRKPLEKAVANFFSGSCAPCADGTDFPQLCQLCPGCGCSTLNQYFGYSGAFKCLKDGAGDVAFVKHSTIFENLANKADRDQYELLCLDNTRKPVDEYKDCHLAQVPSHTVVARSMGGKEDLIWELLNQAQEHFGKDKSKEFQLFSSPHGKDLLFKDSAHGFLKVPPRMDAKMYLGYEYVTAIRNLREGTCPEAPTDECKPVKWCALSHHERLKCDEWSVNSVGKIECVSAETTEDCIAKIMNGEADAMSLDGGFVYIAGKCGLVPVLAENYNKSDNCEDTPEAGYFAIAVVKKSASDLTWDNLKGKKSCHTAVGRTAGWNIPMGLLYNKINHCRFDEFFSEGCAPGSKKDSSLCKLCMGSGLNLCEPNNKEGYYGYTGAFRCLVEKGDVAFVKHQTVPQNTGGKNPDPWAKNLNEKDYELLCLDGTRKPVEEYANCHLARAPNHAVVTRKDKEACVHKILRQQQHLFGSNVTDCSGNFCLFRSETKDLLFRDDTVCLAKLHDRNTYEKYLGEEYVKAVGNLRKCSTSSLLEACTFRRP
Chain of human transferrin receptor (hTfR) (P02786 89-760): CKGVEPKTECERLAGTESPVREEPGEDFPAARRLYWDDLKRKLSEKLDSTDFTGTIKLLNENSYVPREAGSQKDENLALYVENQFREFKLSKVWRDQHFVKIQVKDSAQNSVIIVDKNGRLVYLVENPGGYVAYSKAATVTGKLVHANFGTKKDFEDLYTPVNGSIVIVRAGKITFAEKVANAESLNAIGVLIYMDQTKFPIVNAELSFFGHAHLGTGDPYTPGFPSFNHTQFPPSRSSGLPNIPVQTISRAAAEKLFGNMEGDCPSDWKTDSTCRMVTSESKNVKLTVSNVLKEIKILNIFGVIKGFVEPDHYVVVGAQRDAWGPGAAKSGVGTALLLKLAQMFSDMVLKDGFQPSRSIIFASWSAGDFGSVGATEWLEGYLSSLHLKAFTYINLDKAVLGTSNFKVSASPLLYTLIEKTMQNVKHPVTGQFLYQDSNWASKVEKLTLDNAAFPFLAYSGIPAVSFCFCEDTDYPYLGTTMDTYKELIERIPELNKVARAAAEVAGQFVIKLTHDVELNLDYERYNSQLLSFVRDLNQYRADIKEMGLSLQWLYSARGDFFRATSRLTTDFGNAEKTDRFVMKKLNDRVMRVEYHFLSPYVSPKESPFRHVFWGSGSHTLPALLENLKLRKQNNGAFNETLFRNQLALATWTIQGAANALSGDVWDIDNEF

## GCGTGTGCACACGGTCACTTAGTATCGCTACGTTCTTTGGTTCCGTTCGG (structured_DNA, 5' amino C6 linker) [GS24 (equilibrium mixture A-1F:A-2F 20:80)]
[1]
  Kd: 250 ± 40 nM
[2]
  Kd: 1000 ± 250 nM
Transferrin (Tf)
  binding result: no binding

## GCGTGTGCACACGGTCACTTAGTATCGCTACGTTCTTTGGTTCCGTTCGG (structured_DNA, 5' amino C6 linker) [GS24 fold A-2F (purified active fold)]
[3]
  Kd: 130 ± 30 nM

## CACTTAGTATCGCTACGTTCTTTGGTTCCGTTCGG (structured_DNA, 5' amino C6 linker) [GS24min]
[4]
  Kd: 1200 ± 390 nM
